Experiment [1] addresses type IV pili of N. meningitidis 8013, SB sequence type pilin PilE with GATDH on S63 and G3P on S69 (Neisseria meningitidis).
The target is the same in experiment [2]. Nature of the experiment: cryo-EM structure; purified pili 10 µg/ml with nanobody 50 µg/ml, vitrified at 4 °C; helical refinement.
Experiment [3] concerns the target T1, type IV pili of the N. meningitidis 8013 pglAON* strain (SB pilin with the GATDH-Gal double sugar on S63) (Neisseria meningitidis 8013 (serogroup …, strain, GATDH with a second sugar (galactose in position 3) on serine 63)).
T1 construct: numbers count on: the mature protein; also called GATDH-GLA; GATDH-GAL variant
T1 chain: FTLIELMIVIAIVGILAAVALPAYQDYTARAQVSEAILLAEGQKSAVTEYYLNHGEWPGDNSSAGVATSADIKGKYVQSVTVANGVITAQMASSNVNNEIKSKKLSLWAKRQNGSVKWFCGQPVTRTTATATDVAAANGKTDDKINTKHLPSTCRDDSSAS
Nature of the experiment: immunostaining of cells or tissue; as a1 but nanobody 5 µg/ml and anti-His tag 17.5 µg/ml (experiments with C24_S112-114G, Fig. 7f and g). To be noted: one partner purified.

These results are taken from PMC10948894, “Cryo-EM structures of type IV pili complexed with nanobodies reveal immune escape mechanisms” (Nature Communications, 2024).

Substitutions are numbered along the chain they refer to. In names and notes the source's numbering stands.

B1: C24 nanobody (VHH)
VHH: QLQLVESGGGLVQPGGSLRLSCASSGFRSDYYAIVWFRQAPGKEREGVSCISTSGKTTIYADSVKGRFTISRDNAKNTVYLQMNSLKPEDTAVYYCAADFRGSRLSDVCSYSSMDYWGKGTLATVSS
With B1, in experiment [1], the inhibition of type IV pili-dependent bacterial auto-aggregation (blocks the pilus-pilus interaction, m1 with m1); indicated amounts of nanobody, Fig. 3c turned out to be 5 µg/mL. Also, the stoichiometry N (usually a count of units in the complex or per binding partner) in experiment [2] came out at 1.

B2: C24_S112-114G nanobody (VHH)
VHH: B1 VHH with S110G, S112G
notes: as the chain of m8 (C24) with the two stated changes; also called C24 S112G S114G double mutant; source: E. coli BL21 (DE3)/pLysS (plasmid pET26b-C24 mutated), purified; not shown: His tag, C-terminal, kept
Take B2: the binding result in experiment [3] was “binds”.

B3: F10 nanobody (VHH)
VHH: QLQLVESGGGLVQPGGSLRLSCAASGFTLDQYAIGWFRQAPGKEREGVSCISSRGGATNYAHSVKGRFTISRDNAKNTVYLQMNSLKPEDTAVYYCAAGVYTIVTGTGPEDGMDYWGKGTLVTVSS
Consider B3, for which the inhibition of type IV pili-dependent bacterial auto-aggregation (blocks the pilus-pilus interaction, m1 with m1); indicated amounts of nanobody, Fig. 3c in experiment [1] was determined as 5 µg/mL. Moreover, the stoichiometry N in experiment [2] was 1.
